Key:
Test in all cases: purified protein, by the assay type
Set-up in all cases: p-nitrophenyl ester hydrolysis, absorbance at 412 nm, Michaelis-Menten fit
[1] = substrate: CC(=O)Oc1ccc([N+](=O)[O-])cc1
Excerpt: (§1) (A) Classic p-nitrophenyl ester substrates were used as conformation for fluorogenic substrate measurements (Figure 1). (B) Catalytic efficiency comparison of MmLipN against p-nitrophenyl substrates. Catalytic efficiency values (kcat/Km) are given ± SD. (C, D) Kinetic activity of MmLipN against (C) short alkyl ester substrates: p-nitrophenyl acetate (C2) and p-nitrophenyl butyrate (C4) and (D) longer alkyl ester substrates: p-nitrophenyl valerate ([…]), p-nitrophenyl octonoate (C8), and p-nitrophenyl myristate (C14). Data points were fitted to the Michaelis–Menten equation and are shown ± SD.

[2] = substrate: CCCCC(=O)Oc1ccc([N+](=O)[O-])cc1
Excerpt: as §1

[3] = substrate: CCCCCCCC(=O)Oc1ccc([N+](=O)[O-])cc1
Excerpt: as §1

[4] = substrate: CCCCCCCCCCCCCC(=O)Oc1ccc([N+](=O)[O-])cc1
Excerpt: as §1

B1: MmLipN (LipN from M. marinum) (Mycobacterium marinum M) (protein)
chain: MTNSLPGETDLHPETVHATMSWLSRVQNTVTVVGAKVIPWVPDVAKRLITRGRSVIIDGNTLDPALQLMLSGMRVVGLDGLVIDDDLAASRAHMREAMLGFPGPQIHVDVEELTLPGPAGDISARHYRPPGDAAAPLLVFYHGGGWALGDLDTHDAVCRLTCRDAGIHVLAIDYRLSPEDRAPAAIDDAFAAFEWAHAHAAELGALPGRVAVGGDSAGGNLAAVVSQLARDSGGPAPIFQWLIYPRTDFAGRTRSASLFARGFLLTKRDIDWFHSQYLKGSGIEPTDPRVSPLRAESLAGLAPALIAVAGFDPLRDEGENYATALRAAGTPVDLRAMGSLTHGFLNLFPLGGGCAAATSELISALRAHLTRV
notes: E. coli LOBSTR (DE3); Ni-NTA
Km [1]: 2400 ± 1200 µM
kcat [1]: 94 ± 8 s⁻¹
kcat/Km [1]: 39000 ± 10000 M⁻¹ s⁻¹
Km [2]: 250 ± 70 µM
kcat [2]: 15 ± 1 s⁻¹
kcat/Km [2]: 59000 ± 8000 M⁻¹ s⁻¹
Km [3]: 410 ± 330 µM
kcat [3]: 1.1 ± 0.2 s⁻¹
kcat/Km [3]: 2700 ± 1100 M⁻¹ s⁻¹
Km [4]: 120 ± 50 µM
kcat [4]: 0.28 ± 0.02 s⁻¹
kcat/Km [4]: 2300 ± 400 M⁻¹ s⁻¹

Reference: paper PMC10099132, “Sequence and Structural Motifs Controlling the Broad Substrate Specificity of the Mycobacterial Hormone-Sensitive Lipase LipN” (ACS Omega, 2023)
